The DeepSol protein solubility set

Assay: soluble on expression in E. coli; label from the status in PepcDB or PDB records

| Sequence | soluble on expression in E. coli |
| --- | --- |
| MWKITENLYLAQLPMIVGPTSKQEFSKNDIKRVLTLTTEPISEKQKIGGVDYKFLHLLDMPDEPILDNAILETAVLYINEGVEKEENVGVHCLAAVSRSVSICAAYLMYKNQWPVEKALKMIESVRKTIGPNAGFLAQLKIWERSGMSFSADQYKNLKIDIPGITCVDSKTIWRQPVIDDQTKVRFKCRQCRKVIFNSDNIVHPLAEACQKYLIEPMAWLNVSGATCSVSHTCGAKLGTFIASGSKCNGCNKFVRQWIFINRTKLDKVEIAT | not soluble |
| MKNNIRFDLSDYLIHFFRDVNLETGSHIYLPEHCGFNNQHHACFIDAKYLLRLSLRSHKIFSSWSYRNGQRTVYGDSPVVCFTDMPIAAYLETGVRRLERNEKIGLYAIVLPKEQMFNYGARPVIYGLDQHNNARCSQGRNGERILDETALPLIEQYRYVTYVPGKIDWTHEREWRWPYRGDINNFLNHIKEYGIPENIESTPGFDFRSSEISGAGIIVPFAEDIPTVAHDILTLIDRGVIGRNTFKFIIAVESLQSWTQLSEPGALLSCINDNTFEFESFFDLSASKVKNYADSINDYVSELYSKKDFLNDSYAMEFGNAWVWIHDNQSQVVRALLQAGMIKVNKEGRYLLDVNLASVDWPLRRKEAFASHVAGWLKHRFDIEAGRYSVRGKDDYDAIPSYETPLKDQHPFYNHTVNVDW | not soluble |
| MSLRILVIEDEISLNKTIIDNLNEFGYQTDSSENFKDGEYFIGIRHYDLVLANWTLPDGDGAELVNTIKHKSPRTSVMIMSSKTDKETEIKALKAGADDFVKKPLDFDILLARIEARLRLGGTNVIKIEDLVIDPDEEKITYKGQDIELKGKPFEVLTHLARHSDQIVSKEQLLDAIWEEPELVTPNVIEVAINQIRQKMDKPLNISTIETVRRRGYRFCFPKKSEGHHHHHH | soluble |
| MLKLQTLQALICIEEVGSLRAAAQLLHLSQPALSAAIQQLEDELKAPLLVRTKRGVSLTSFGQAFMKHARLIVTESRRAQEEIGQLRGRWEGHITFAASPAIALAALPLALASFAREFPDVTVNVRDGMYPAVSPQLRDGTLDFALTAAHKHDIDTDLEAQPLYVSDVVIVGQRQHPMANATRLAELQECRWAFSSAPRGPGAIIRNAFARYGLPEPKLGLVCESFLALPGVVAHSDLLTTMPRTLYERNAFKDQLCSIPLQDALPNPTIYVLRRHDLPVTPAAAGLIRWIQHHALQTGHHHHHH | soluble |
| SANQNFNNSETLGHQGSHVVTLQLRIDGMHCKSCVLNIEENIGQLLGVQSIQVSLENKTAQVKYDPSCTSPVALQRAIEALPPGNFKVSLPDGAEGSGTDHRSSSSHSPGSPPRNQVQGTCSTTLIAIAGMTCASCVHSIEGMISQLEGVQQISVSLAEGTATVLYNPAVISPEELRAAIEDMGFEASVVSESCSTNPLGNH | soluble |
| RRTTNDGFHLLKAGGSCFALISGTANQVKCYRFRVKKNHRHRYENCTTTWFTVADNGAERQGQAQILITFGSPSQRQDFLKHVPLPPGMNISGFTASLDF | soluble |
| MAHHHHHHMSTYVPKPSRDNVYRFFFTEGVIACKKDRMGTWTGTLGGNTFTVPCIQVMQLMRSLKSRNLIKEQYAWRHYYWTLNDEGIAYMRSYLHLAPSAMPNTQKPSSVNFEKVTEGRGRGRGRGGRGRGEGRGRGRGEGRGRGRGRGFGGERMNYRAAAATSDGEAAPAPAAE | soluble |
| MTSLILPTDDGGTREYRLQAATSWVKPTAPLTARRAYAAAHVIPEVAADNTPGAPAQLDWDATLAYRHELWSYGLGVADAMDTAQRGMGLDWAATQQLIKRTGAEAASVVAAGNAAITGKSVRDLVSCGAGTDQLDITALPEGAAGIQAVIDAYREQIAVVSEAGPKVILMASRALAKVANGADDYLHVYSTLLQEVDQPVILHWLGTMFDPALAGYWGSDDVSVATDTFLSLIREHSDKVDGVKVSLLDASHEVALRAALPEGVRLYTGDDFNYPELIDGDQTHHSDALLGIFAAIYPAASVALQKYDAGQGTEGRAILDSTRELGKHIFSAPTFYYKTGIAFMSWLNGKQPGFQMVGGLHSGRSVLHLAKTFELADQAGLLKDPSLAAFRMSDFLRINGVG | not soluble |
| MGSSHHHHHHSSGLVPRGSHMKLYIIGAGPGDPDLITVKGLKLLQQADVVLYADSLVSQDLIAKSKPGAEVLKTAGMHLEEMVGTMLDRMREGKMVVRVHTGDPAMYGAIMEQMVLLKREGVDIEIVPGVTSVFAAAAAAEAELTIPDLTQTVILTRAEGRTPVPEFEKLTDLAKHKCTIALFLSSTLTKKVMKEFINAGWSEDTPVVVVYKATWPDEKIVRTTVKDLDDAMRTNGIRKQAMILAGWALDPATPWLSGLGENPAIRAMFVAHLHQALNMAVEEAA | soluble |
| MGSDKIHHHHHHAGCKTSKVVKTTPVEPAYLSSKLQLTVPNKNGSMTVSGSMKMKSGERIQLSVLMPVFRSEVMRMEVTPDEVLLIDRMNKRYVRATRDELKGILPENADFDRLEKLLFKASLPGEKKELTGRELGIPSLEKAKVRLSDFSTAEFELIPTEVSSRYTQVALEDLLKMLMKL | not soluble |
| MGSDKIHHHHHHMILSEVRIHNFRNIASTSLILNPNFNCITGPNGGGKTSLLEALYMLSCAHSFRSREITPIISYGQNQLNVFAHAYDESTISVQKSITDGTQIKLNNQFCCTTSQLAYALPCQVIYSDIFQIIDAGPSVRRSLLDWGLFHVKHDYLKIWKDYKRILSQRNALLKSRATYDHFIPWDQQLSQLANQLDKARNDYFLQWQPKFYQVLSDLTNISCTVEYYKGWDRKNAGQNMEELLQKSFDSDRKKLYTQYGPHQADLIISTEQYRVKHTLSRGQQKIILIALKLAQGQLLDKDCLYLIDDLAAELDDYHQRNLIKYLTQQKGQFVITNLINNNNYDILPIDSGLFEVNCGAIKNL | not soluble |
| MGSDKIHHHHHHMSSEAIFEHGYENIDLVREYDARYAGEDVHYETFARLANFFGRDMRPHWHDRYFQLHYLVTGRITLQLDEHFYSVRAPLFVLTPPSVPHTFFTNPDSDGHVLTVRQELIWPLVEKLWPGSGDAAMLQGICLSLEGMEHTLAALNHYWPIISLEFQQNKQGREILLQSLAQSIFTILLREAPPNDISTCSVRGEMCLFQKFNRLIDENYRQHLMVPEYATMLGMSESRLTELCRRFANQSPKRLIFERVSREARRLLLYSEQSINQIALDLGYKDPAYFARFFNRMMGCSPTQFRGR | not soluble |
| MGSDKIHHHHHHMKNTEIRKNIFPVGFYDDIHPDFSVNFQMNRCYTMTNDDVMLKEMREISPSIHNYEEFIEKFLELYNKALNEGHKLRAAYYLRTAEFYMTADHPQKQNYRKQFISLMQEYFNISDEQPYKVPYENGFLPAYRFTSEAPKGTIVMFGGFDSYVEEMFKMALFLKEAGYDVVFFDGPGQGSALEDYKIPMTHEWEKPVKSILDYFELDDVTLLGISLGGYLTVRAAAFEKRVHRVIADDILSNFYEVVLNTLPSQLKEKVNSLMSDGNEQEVNILFKDLMKKSLMVEWAINQGMHITGSKTPYEFLNKILLYNTSKISEKLEQDVLLMAAQEDHYIPLNQFFDQSKSLINVRSLTTRMFTRKETAQNHCQSGNLGLAFEVIANWIEQIQK | not soluble |
| MGSDKIHHHHHHMSNIKVLIQASSRSWAGGRDICMGLVNGEIAIVRTIKRALTAFPEAQFCLVAPEFDRGGELKGIVDEIADKRLQAFYGFDESPLSRMVAASSELKDDDFIVRVDGIHFCFDTNLSQQMVSLAQKNNLDCIKLPADFPVHFSSEVFRVGALRELVKILDKPELAKFHVHPKTYFELNRYDYKFEHLGSLPQYSDDYLRECRQLAQAIYEIPRQEVNSHRIASGDRLGYHYQLALKYLKSSMKVLDIACADGYGVRMMSTSLATVHGADLDPESVAYAKAHSSQKNVAFFVEDITDMSFDDDSYDAVTSFETLEHVPEEACLKELQRIIKPGGMLVLSTPQNSYGHIPVNSCHIVEYSLDYLLNLVGQYFHIVKVIGIKAGIIHDDADPYGTNTVLVCIKPIR | not soluble |
| MSKLLYLVAVDGGEWGERAADRAIHLAEKTHAKVKLVTVIDWPYIHPMIIEGAAAPLLDKEAEEMTVKAKVITPLVEKYNTLSLNITTELLWGDPAVILKEQVEVTNADMIFVGRQGRSSVVDTLFGSVANKLAHSVSVPIVLVP | not soluble |
| MSQSKADYINVIGAGLAGSEAAYQIAKRGIPVKLYEMRGVKATPQHKTTNFAELVCSNSFRGDSLTNAVGLLKEEMRRLDSIIMRNGEAHRVPAGGAMAVDREGYAEAVTAEIESHPLIEVIRKEITEIPDDAITVIASGPLTSDALAEKIHELNGGDGFYFYDAAAPIVDKATIDMNKVYLKSRYDKGEAAYLNCPMTKEEFMAFYEALTTAEEAPLNSFEKEKYFEGCMPIEVMAKRGIKTMLYGPMKPVGLEYPEDYMGPRDGDFKTPYAVVQLRQDNAAGSLYNIVGFQTHLKWGEQKRVFQMIPGLENAEFVRYGVMHRNSYMDSPNLLKQTFQSKSNPNLFFAGQMTGVEGYVESAASGLVAGINAARLFKGEDEVIFPHTTAIGSLPYYVTHAESKHFQPMNVNFGIIKELEGPRIRDKKERYEKIAERSLKDLQTFIDALEHHHHHH | soluble |
| MGSDKIHHHHHHMKIRLTQLQCSSSSVTVDINDWVIEPQQSWGVFSTEGDVGALLGQLLTQQIDAQTLTYSGDIIGVTPASVALVSLLEQQSLLEAILEQDDSESLGYTDPKTTVFGVVFNQCHDNDLTHQLLQQLDLTHLSLSPFAQLSTGEGRRVMLARAVATQVPFLVLDEPYAGLDVAHRQTLTEYLQQLSQTKQILVVVSREEDMPDWIEHVAMFSHGKLDTMMTKSQWDNHPVIAQLTAQAGQQSDDILALIRRHRHKPLFANPVFQLNNGRVAYSDKVIFSGVNWRIDNGVHWQVKGPNGCGKSTLLGLIFGDHPQCYSNDIDIFGNKRGSGESIWEIKKHIGMVSSALHLQYRVNCSALDVIVSGFYDSIGLYQKPTAQQISVATEWLAILHMGHLSKTAFRQLEYGQQRLLLIARAIVKQPTLLILDEPYQGLDYLGRRLIKNALELIAKEHLSQLLYVSHYQEDSLDSIQHYIEFVKDENQDGYRAVVSQG | not soluble |
| MGSDKIHHHHHHMALLEVKNLKKYFPIIKRGFRRKVVGYLKAVDGISFHIEEGETLGLVGESGCGKTTTAKLIMRGIEPTEGEIVLNMDGEKVDITKLSEKELREKGVRRFLQMIFQDPYSSLNPRMTVRDIIAEPLVVNGVIKGKEEIDAIVSDLLRAVGLRPEYMQRYPHAFSGGQRQRIAIARAIALKPKLVLCDEPTSALDVSVQAQIINLLKDLQKEYNLTYLFISHDLGVVEHITNRVAVMYVGRIVELAETEELFSSPKHPYTEALLSAVPKPDPKRKRKKAQLTGEVPDPSNPPSGCYFHPRCPYAKAICKEVYPDLRNVGTDQNPHLVACHFADSLKLEGVGTM | not soluble |
| MASGTASMQRPSIEKEPYYHGFLPREDVKTVLKNNGDFVIRISEPQAGSPRSNILSVMHCVPPMEEEIKHYVIKTKGDKIFIEKVSFLSIPEMVEWHLTKKESVQKDVFLIKAISRQAWELDHDNIEPLKKLGEGAFGEVMMGTMKFRKGGKSVQVAIKQAKLSNLTKEQIKEFMGEARVMRSLSHPHVVRFYGVPRRRVNVALCRSLNEFLAKCHRKLRCATPFFVCMSVNWLSVLNELRVFLE | not soluble |
| MHLSPESLEAFVQAVSLGSFSAAARKLGKSQSTVSEAIARLEIDLGLELFDRSGRQPQLTEAGRTLLGRVEEVLGASDRLRRVAALLAGGSEPRVTLALSDTYHSARYEARLAELDERYPELEFECLIAEDQDVIAQVSRGRATLGLLAAQPHYPPELGVAAVAERAEFGLFAAVDHPLAGLERVSERDLSEWRLLRLNTYSETGAAINDGLPSSGGRCWSAPNYLLLLEMATHGFGWAELPRWLVSGYANGRLKELPVSGWPRSQAVDVVWSRQRPLGPAANWLLDRLLDRDLPI | not soluble |
